From patent publication US7306904

Target: soluble PDGF-alpha receptor (UniProt P16234)
Experiment: proximity ligation competition assay in solution: 100 nM PDGF-AA added to 6.4 pM PDGF-BB, 2.5 nM soluble PDGF-alpha receptor and 5 pM aptamer probes; the signal comes from PDGF-BB displaced from the receptor, compared with no PDGF-AA

UniProt P16234, sequence (P16234 24-524 limits assumed): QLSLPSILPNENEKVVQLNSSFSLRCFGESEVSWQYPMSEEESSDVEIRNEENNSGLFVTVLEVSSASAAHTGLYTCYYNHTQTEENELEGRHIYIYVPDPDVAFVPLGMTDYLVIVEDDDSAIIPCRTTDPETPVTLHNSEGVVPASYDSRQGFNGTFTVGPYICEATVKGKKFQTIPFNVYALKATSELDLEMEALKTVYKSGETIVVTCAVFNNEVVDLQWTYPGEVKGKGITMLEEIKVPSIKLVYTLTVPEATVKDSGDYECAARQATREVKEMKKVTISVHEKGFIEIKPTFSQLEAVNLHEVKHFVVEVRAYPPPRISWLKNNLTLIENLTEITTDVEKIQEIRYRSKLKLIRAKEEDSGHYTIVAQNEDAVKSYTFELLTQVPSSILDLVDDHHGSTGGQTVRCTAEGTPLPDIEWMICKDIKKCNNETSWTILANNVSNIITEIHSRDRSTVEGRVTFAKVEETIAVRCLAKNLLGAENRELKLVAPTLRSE

fold increase in signal: 3 fold
Substance: PDGF-AA (from UniProt P04085 87-211) (ligand)
